{
  "source": "paper PMC7717906",
  "about": "(eLife, 2020)",
  "proteins": {"B1": {"name": "His-MoOsm1 (enzyme)", "chain": "MAEFVRAQIFGTTFEITSRYSDLQPVGMGAFGLVCSARDQLTNQNVAIKKIMKPFSTPVLAKRTYRELKLLKHLKHENVISLSDIFISPLEDIYFVTELLGTDLHRLLTSRPLEKQFIQYFLYQIMRGLKYVHSAGVVHRDLKPSNILVNENCDLKICDFGLARIQDPQMTGYVSTRYYRAPEIMLTWQKYDVEVDIWSAGCIFAEMLEGKPLFPGKDHVNQFSIITELLGTPPDDVINTIASENTLRFVKSLPKRERQPLKNKFKNADPSAIDLLERMLVFDPKKRITATEALAHEYLTPYHDPTDEPIAEEKFDWSFNDADLPVDTWKIMMYSEILDYHNAEAGMQQMDDQFTGQ"}},
  "target": "the molecule itself",
  "assay": "SEC",
  "data": [
    {"protein": "B1", "values": [
      {"measurement": "stoichiometry N", "result": 2}
    ]}
  ]
}
